# Measurements as given in patent US20140087995A1 (published 2014).
# Numbered stars: 1 amine (or outer) side, 2 acyl side, 3 side chain; on linkers, the order of the positions; unused ones are H or OH. Bridge positions count the residues as written; N and C are the ends. Side chains are listed from the residue outwards. Ends that are not written are not given here. * marks the point of attachment. C20 diacid = O=C(O)CCCCCCCCCCCCCCCCCCC(=O)*; γGlu = O=C(O)[C@H](CCC(=O)[*:2])N[*:1]; AEEA = NCCOCCOCC(=O)O
# B1: N^α1-[2-[2-[2-[[2-[2-[2-[[(4S)-4-carboxy-4-(19-carboxynonadecanoylamino)butanoyl]amino]ethoxy]ethoxy]acetyl]amino]ethoxy]ethoxy]acetyl]-[Arg17,Pro21,Pro27]-h-am … (peptide)
# peptide: KCNTATCATQRLANFLRHSSPNFGAIPSSTNVGSNTY
# modifications: C20 diacid-gGlu-2xOEG on alpha amino group of N-terminal Lys 1; disulfide Cys2-Cys7; C-terminal amide (as human amylin)
# notes: also called compound 24
# B2: N^α1-[(4S)-4-carboxy-4-(19-carboxynonadecanoylamino)butanoyl]-[Glu14,Arg17,Pro21,Pro25,Pro28,Pro29]-h-amylin (peptide)
# peptide: {C20 diacid-γGlu}-KCNTATCATQRLAEFLRHSSPNFGPILPPTNVGSNTY-NH2
# modifications: disulfide 2-7
# SMILES: CC[C@H](C)[C@H](NC(=O)[C@@H]1CCCN1C(=O)CNC(=O)[C@H](Cc1ccccc1)NC(=O)[C@H](CC(N)=O)NC(=O)[C@@H]1CCCN1C(=O)[C@H](CO)NC(=O)[C@H](CO)NC(=O)[C@H](Cc1c[nH]cn1)NC(=O)[C@H](CCCNC(=N)N)NC(=O)[C@H](CC(C)C)NC(=O)[C@H](Cc1ccccc1)NC(=O)[C@H](CCC(=O)O)NC(=O)[C@H](C)NC(=O)[C@H](CC(C)C)NC(=O)[C@H](CCCNC(=N)N)NC(=O)[C@H](CCC(N)=O)NC(=O)[C@@H](NC(=O)[C@H](C)NC(=O)[C@@H]1CSSC[C@H](NC(=O)[C@H](CCCCN)NC(=O)CC[C@H](NC(=O)CCCCCCCCCCCCCCCCCCC(=O)O)C(=O)O)C(=O)N[C@@H](CC(N)=O)C(=O)N[C@@H]([C@@H](C)O)C(=O)N[C@@H](C)C(=O)N[C@@H]([C@@H](C)O)C(=O)N1)[C@@H](C)O)C(=O)N[C@@H](CC(C)C)C(=O)N1CCC[C@H]1C(=O)N1CCC[C@H]1C(=O)N[C@H](C(=O)N[C@@H](CC(N)=O)C(=O)N[C@H](C(=O)NCC(=O)N[C@@H](CO)C(=O)N[C@@H](CC(N)=O)C(=O)N[C@H](C(=O)N[C@@H](Cc1ccc(O)cc1)C(N)=O)[C@@H](C)O)C(C)C)[C@@H](C)O
# notes: also called compound 6
# B3: N^ε1-[2-[2-[2-(19-carboxynonadecanoylamino)ethoxy]ethoxy]acetyl]-[Arg17,Pro21,Pro27]-h-amylin (peptide)
# peptide: K([AEEA-C20 diacid])CNTATCATQRLANFLRHSSPNFGAIPSSTNVGSNTY-NH2
# modifications: disulfide 2-7; N-terminus assumed
# SMILES: CC[C@H](C)[C@H](NC(=O)[C@H](C)NC(=O)CNC(=O)[C@H](Cc1ccccc1)NC(=O)[C@H](CC(N)=O)NC(=O)[C@@H]1CCCN1C(=O)[C@H](CO)NC(=O)[C@H](CO)NC(=O)[C@H](Cc1c[nH]cn1)NC(=O)[C@H](CCCNC(=N)N)NC(=O)[C@H](CC(C)C)NC(=O)[C@H](Cc1ccccc1)NC(=O)[C@H](CC(N)=O)NC(=O)[C@H](C)NC(=O)[C@H](CC(C)C)NC(=O)[C@H](CCCNC(=N)N)NC(=O)[C@H](CCC(N)=O)NC(=O)[C@@H](NC(=O)[C@H](C)NC(=O)[C@@H]1CSSC[C@H](NC(=O)[C@@H](N)CCCCNC(=O)COCCOCCNC(=O)CCCCCCCCCCCCCCCCCCC(=O)O)C(=O)N[C@@H](CC(N)=O)C(=O)N[C@@H]([C@@H](C)O)C(=O)N[C@@H](C)C(=O)N[C@@H]([C@@H](C)O)C(=O)N1)[C@@H](C)O)C(=O)N1CCC[C@H]1C(=O)N[C@@H](CO)C(=O)N[C@@H](CO)C(=O)N[C@H](C(=O)N[C@@H](CC(N)=O)C(=O)N[C@H](C(=O)NCC(=O)N[C@@H](CO)C(=O)N[C@@H](CC(N)=O)C(=O)N[C@H](C(=O)N[C@@H](Cc1ccc(O)cc1)C(N)=O)[C@@H](C)O)C(C)C)[C@@H](C)O
# notes: also called compound 43
# B4: N^ε1-[2-[2-[2-[[(4S)-4-carboxy-4-(19-carboxynonadecanoylamino)butanoyl]amino]ethoxy]ethoxy]acetyl]-[Arg17,Pro21,Pro27]-h-amylin (peptide)
# peptide: K([AEEA-γGlu-C20 diacid])CNTATCATQRLANFLRHSSPNFGAIPSSTNVGSNTY-NH2
# modifications: disulfide 2-7; N-terminus assumed
# SMILES: CC[C@H](C)[C@H](NC(=O)[C@H](C)NC(=O)CNC(=O)[C@H](Cc1ccccc1)NC(=O)[C@H](CC(N)=O)NC(=O)[C@@H]1CCCN1C(=O)[C@H](CO)NC(=O)[C@H](CO)NC(=O)[C@H](Cc1c[nH]cn1)NC(=O)[C@H](CCCNC(=N)N)NC(=O)[C@H](CC(C)C)NC(=O)[C@H](Cc1ccccc1)NC(=O)[C@H](CC(N)=O)NC(=O)[C@H](C)NC(=O)[C@H](CC(C)C)NC(=O)[C@H](CCCNC(=N)N)NC(=O)[C@H](CCC(N)=O)NC(=O)[C@@H](NC(=O)[C@H](C)NC(=O)[C@@H]1CSSC[C@H](NC(=O)[C@@H](N)CCCCNC(=O)COCCOCCNC(=O)CC[C@H](NC(=O)CCCCCCCCCCCCCCCCCCC(=O)O)C(=O)O)C(=O)N[C@@H](CC(N)=O)C(=O)N[C@@H]([C@@H](C)O)C(=O)N[C@@H](C)C(=O)N[C@@H]([C@@H](C)O)C(=O)N1)[C@@H](C)O)C(=O)N1CCC[C@H]1C(=O)N[C@@H](CO)C(=O)N[C@@H](CO)C(=O)N[C@H](C(=O)N[C@@H](CC(N)=O)C(=O)N[C@H](C(=O)NCC(=O)N[C@@H](CO)C(=O)N[C@@H](CC(N)=O)C(=O)N[C@H](C(=O)N[C@@H](Cc1ccc(O)cc1)C(N)=O)[C@@H](C)O)C(C)C)[C@@H](C)O
# notes: also called compound 41
# B5: N^ε1-[(4S)-4-carboxy-4-[[(4S)-4-carboxy-4-(19-carboxynonadecanoylamino)butanoyl]amino]butanoyl]-[Asp14,Arg17,Pro21,Pro27,Arg35]-h-amylin (peptide)
# peptide: K([γGlu-γGlu-C20 diacid])CNTATCATQRLADFLRHSSPNFGAIPSSTNVGSRTY-NH2
# modifications: disulfide 2-7; N-terminus assumed
# SMILES: CC[C@H](C)[C@H](NC(=O)[C@H](C)NC(=O)CNC(=O)[C@H](Cc1ccccc1)NC(=O)[C@H](CC(N)=O)NC(=O)[C@@H]1CCCN1C(=O)[C@H](CO)NC(=O)[C@H](CO)NC(=O)[C@H](Cc1c[nH]cn1)NC(=O)[C@H](CCCNC(=N)N)NC(=O)[C@H](CC(C)C)NC(=O)[C@H](Cc1ccccc1)NC(=O)[C@H](CC(=O)O)NC(=O)[C@H](C)NC(=O)[C@H](CC(C)C)NC(=O)[C@H](CCCNC(=N)N)NC(=O)[C@H](CCC(N)=O)NC(=O)[C@@H](NC(=O)[C@H](C)NC(=O)[C@@H]1CSSC[C@H](NC(=O)[C@@H](N)CCCCNC(=O)CC[C@H](NC(=O)CC[C@H](NC(=O)CCCCCCCCCCCCCCCCCCC(=O)O)C(=O)O)C(=O)O)C(=O)N[C@@H](CC(N)=O)C(=O)N[C@@H]([C@@H](C)O)C(=O)N[C@@H](C)C(=O)N[C@@H]([C@@H](C)O)C(=O)N1)[C@@H](C)O)C(=O)N1CCC[C@H]1C(=O)N[C@@H](CO)C(=O)N[C@@H](CO)C(=O)N[C@H](C(=O)N[C@@H](CC(N)=O)C(=O)N[C@H](C(=O)NCC(=O)N[C@@H](CO)C(=O)N[C@@H](CCCNC(=N)N)C(=O)N[C@H](C(=O)N[C@@H](Cc1ccc(O)cc1)C(N)=O)[C@@H](C)O)C(C)C)[C@@H](C)O
# notes: also called compound 52
# B6: N^ε1N^ε1-[(4S)-4-carboxy-4-(19-carboxynonadecanoylamino)butanoyl]-[His14,Arg17,Pro21,Pro27,Pro34]-h-amylin (peptide)
# peptide: K([γGlu-C20 diacid])CNTATCATQRLAHFLRHSSPNFGAIPSSTNVGPNTY-NH2
# modifications: disulfide 2-7; N-terminus assumed
# SMILES: CC[C@H](C)[C@H](NC(=O)[C@H](C)NC(=O)CNC(=O)[C@H](Cc1ccccc1)NC(=O)[C@H](CC(N)=O)NC(=O)[C@@H]1CCCN1C(=O)[C@H](CO)NC(=O)[C@H](CO)NC(=O)[C@H](Cc1c[nH]cn1)NC(=O)[C@H](CCCNC(=N)N)NC(=O)[C@H](CC(C)C)NC(=O)[C@H](Cc1ccccc1)NC(=O)[C@H](Cc1c[nH]cn1)NC(=O)[C@H](C)NC(=O)[C@H](CC(C)C)NC(=O)[C@H](CCCNC(=N)N)NC(=O)[C@H](CCC(N)=O)NC(=O)[C@@H](NC(=O)[C@H](C)NC(=O)[C@@H]1CSSC[C@H](NC(=O)[C@@H](N)CCCCNC(=O)CC[C@H](NC(=O)CCCCCCCCCCCCCCCCCCC(=O)O)C(=O)O)C(=O)N[C@@H](CC(N)=O)C(=O)N[C@@H]([C@@H](C)O)C(=O)N[C@@H](C)C(=O)N[C@@H]([C@@H](C)O)C(=O)N1)[C@@H](C)O)C(=O)N1CCC[C@H]1C(=O)N[C@@H](CO)C(=O)N[C@@H](CO)C(=O)N[C@H](C(=O)N[C@@H](CC(N)=O)C(=O)N[C@H](C(=O)NCC(=O)N1CCC[C@H]1C(=O)N[C@@H](CC(N)=O)C(=O)N[C@H](C(=O)N[C@@H](Cc1ccc(O)cc1)C(N)=O)[C@@H](C)O)C(C)C)[C@@H](C)O
# notes: also called compound 67
# B7: N^ε1-[(4S)-4-carboxy-4-[[(4S)-4-carboxy-4-(19-carboxynonadecanoylamino)butanoyl]amino]butanoyl]-[Asp14,Arg17,Pro21,Pro27,Asp35]-h-amylin (peptide)
# peptide: K([γGlu-γGlu-C20 diacid])CNTATCATQRLADFLRHSSPNFGAIPSSTNVGSDTY-NH2
# modifications: disulfide 2-7; N-terminus assumed
# SMILES: CC[C@H](C)[C@H](NC(=O)[C@H](C)NC(=O)CNC(=O)[C@H](Cc1ccccc1)NC(=O)[C@H](CC(N)=O)NC(=O)[C@@H]1CCCN1C(=O)[C@H](CO)NC(=O)[C@H](CO)NC(=O)[C@H](Cc1c[nH]cn1)NC(=O)[C@H](CCCNC(=N)N)NC(=O)[C@H](CC(C)C)NC(=O)[C@H](Cc1ccccc1)NC(=O)[C@H](CC(=O)O)NC(=O)[C@H](C)NC(=O)[C@H](CC(C)C)NC(=O)[C@H](CCCNC(=N)N)NC(=O)[C@H](CCC(N)=O)NC(=O)[C@@H](NC(=O)[C@H](C)NC(=O)[C@@H]1CSSC[C@H](NC(=O)[C@@H](N)CCCCNC(=O)CC[C@H](NC(=O)CC[C@H](NC(=O)CCCCCCCCCCCCCCCCCCC(=O)O)C(=O)O)C(=O)O)C(=O)N[C@@H](CC(N)=O)C(=O)N[C@@H]([C@@H](C)O)C(=O)N[C@@H](C)C(=O)N[C@@H]([C@@H](C)O)C(=O)N1)[C@@H](C)O)C(=O)N1CCC[C@H]1C(=O)N[C@@H](CO)C(=O)N[C@@H](CO)C(=O)N[C@H](C(=O)N[C@@H](CC(N)=O)C(=O)N[C@H](C(=O)NCC(=O)N[C@@H](CO)C(=O)N[C@@H](CC(=O)O)C(=O)N[C@H](C(=O)N[C@@H](Cc1ccc(O)cc1)C(N)=O)[C@@H](C)O)C(C)C)[C@@H](C)O
# notes: also called compound 2
# Molecular target: T1, human calcitonin receptor (human, UniProt P30988 25-474)
# T1 construct: whole, on cells; also called hCTR; hCT
# T1 sequence (looked up): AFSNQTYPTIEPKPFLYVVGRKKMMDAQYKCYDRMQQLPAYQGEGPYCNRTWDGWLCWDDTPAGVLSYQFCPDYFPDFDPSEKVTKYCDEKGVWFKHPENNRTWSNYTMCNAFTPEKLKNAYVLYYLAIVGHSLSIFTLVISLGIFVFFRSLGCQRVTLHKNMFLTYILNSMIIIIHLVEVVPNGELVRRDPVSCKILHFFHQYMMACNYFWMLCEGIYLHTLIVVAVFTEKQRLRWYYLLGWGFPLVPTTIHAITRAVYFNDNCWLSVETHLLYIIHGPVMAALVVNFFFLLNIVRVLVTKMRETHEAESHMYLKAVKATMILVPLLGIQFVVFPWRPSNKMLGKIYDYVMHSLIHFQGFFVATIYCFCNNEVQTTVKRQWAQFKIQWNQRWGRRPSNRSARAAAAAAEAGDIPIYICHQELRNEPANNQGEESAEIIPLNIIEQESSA
# Test: SPA competition with 125I-calcitonin, membranes of BHK hCTR cells (Assay VII)
# Summary of the method: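 BHK hCTR membranes 35 ng/μL + SPA beads 0.05 mg/well; buffer 50 mM Hepes pH 7.4, 1 mM CaCl2, 5 mM MgCl₂, 0.1% OA, 0.02% Tween20. 120 min, 25° C., shaking. Scintillation count; IC50 by one-site binding competition.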
row,Binder,IC50
1,B1,102 nM
2,B2,19.9 nM
3,B3,2.64 nM
4,B4,21.3 nM
5,B5,56.9 nM
6,B6,4.63 nM
7,B7,19.5 nM
